Biological target: T1, PrimPol372-560/ZF-KO (Homo sapiens, UniProt Q96LW4 372-560, C419A;H426A)
T1 sequence: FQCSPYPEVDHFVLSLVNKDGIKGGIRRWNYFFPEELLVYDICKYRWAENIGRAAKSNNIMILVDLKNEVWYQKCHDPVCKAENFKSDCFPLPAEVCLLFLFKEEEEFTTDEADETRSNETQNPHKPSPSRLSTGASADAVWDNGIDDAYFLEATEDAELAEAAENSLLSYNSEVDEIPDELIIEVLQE
Assay: EMSA; 10 mM Mg2+; 40 nM DNA; no binding, protein 0.05-20 uM; 10 mM Bis-Tris-Propane-HCl pH 7.0, 10 mM MgCl2, 1 mM DTT, 40 nM DNA, 25°C, 60 min; 5% polyacrylamide gel in 0.5x TBE
Settings: protein: recombinant; tags: His (Ni-NTA purified); label: 5'-Hex

TGTCGTCTGTTCGGTCGTTCGGTCTTCAAGGCTGTTGTGCGCCCTGCGCG (ssDNA) [HP-50 ssDNA (sequence 7)]: no binding.

From publication PMC4027207, “Molecular dissection of the domain architecture and catalytic activities of human PrimPol” (Nucleic Acids Research, 2014)
